Test results published in the RNAGym collection of RNA variant scans (doi:10.7554/elife.90254).

B1: LINE1-mini (parent)
chain: GGCAGAGCUCAACACAGCGUGGCAAAGUGGCUGUGGCUAGACUGCC

Variants of: B1
Test: self-cleavage, relative activity (ratio to wild type); higher = more cleavage; in vitro, sequencing; the parent is a self-cleaving ribozyme

Row | Variant | self-cleavage
1 | GGCAGAGCUAUACACAGCGUGGCAAAGUGGCUGUGGCUAGACUGCC | 0.03
2 | GGCAGAGCUACACACAGCGUGGCAAAGUGGCUGUGGCUAGACUGCC | 0.02
3 | GGCAGAGCUAGACACAGCGUGGCAAAGUGGCUGUGGCUAGACUGCC | 0.03
4 | GGCAGAGCGCAACACAGCGUGGCAAAGUGGCUGUGGCAAGACUGCC | 0.06
5 | GGCAGAGCGCAACACAGCGUGGCAAAGUGGCUGUGGCCAGACUGCC | 0.09
6 | GGCAGAGCGCAACACAGCGUGGCAAAGUGGCUGUGGCGAGACUGCC | 0.01
7 | GGCAGAGCGCAACACAGCGUGGCAAAGUUGCUGUGGCUAGACUGCC | 0.07
8 | GGCAGAGCGCAACACAGCGUGGCAAAGUCGCUGUGGCUAGACUGCC | 0.05
9 | GGCAGAGCGCAACACAGCGUGGCAAAGUAGCUGUGGCUAGACUGCC | 0.08
10 | GGCAGAGCGCAACACAGCGUGGCAAAGUGGAUGUGGCUAGACUGCC | 0.04
11 | GGCAGAGCGCAACACAGCGUGGCAAAGUGGUUGUGGCUAGACUGCC | 0.03
12 | GGCAGAGCGCAACACAGCGUGGCAAAGUGGGUGUGGCUAGACUGCC | 0.04
13 | GGCAGAGCGCAACACAGCGUGGCAAAGUGGCAGUGGCUAGACUGCC | 0.12
14 | GGCAGAGCGCAACACAGCGUGGCAAAGUGGCGGUGGCUAGACUGCC | 0.05
15 | GGCAGAGCGCAACACAGCGUGGCAAAGUGGCCGUGGCUAGACUGCC | 0.05
16 | GGCAGAGCGUAACACAGCGUGGCAAAGUGGCUGUGGCUAGACUGCC | 0.05
17 | GGCAGAGCGAAACACAGCGUGGCAAAGUGGCUGUGGCUAGACUGCC | 0.03
18 | GGCAGAGCGGAACACAGCGUGGCAAAGUGGCUGUGGCUAGACUGCC | 0.02
19 | GGCAGAGCUAAACACAGCGUGGCAAAGUGGCUGUGGCUAGACUGCC | 0.07

Row | Variant | self-cleavage
20 | GGCAGAGCGCAACACAGCGCGGCAAAGUGGCUGUGGCUAGACUGCC | 0.05
21 | GGCAGAGCGCAACACAGCGAGGCAAAGUGGCUGUGGCUAGACUGCC | 0.07
22 | GGCAGAGCGCAACACAGCGGGGCAAAGUGGCUGUGGCUAGACUGCC | 0.06
23 | GGCAGAGCGCAACACAGCGUUGCAAAGUGGCUGUGGCUAGACUGCC | 0.06
24 | GGCAGAGCGCAACACAGCGUAGCAAAGUGGCUGUGGCUAGACUGCC | 0.13
25 | GGCAGAGCGCAACACAGCGUCGCAAAGUGGCUGUGGCUAGACUGCC | 0.08
26 | GGCAGAGCGCAACACAGCGUGACAAAGUGGCUGUGGCUAGACUGCC | 0.21
27 | GGCAGAGCGCAACACAGCGUGUCAAAGUGGCUGUGGCUAGACUGCC | 0.19
28 | GGCAGAGCGCAACACAGCGUGCCAAAGUGGCUGUGGCUAGACUGCC | 0.1
29 | GGCAGAGCGCAACACAGCGUGGCAAAGUGGCUGUGGCUAGACUGCG | 0.05
30 | GGCAGAGCGCAACACAGCGUGGCAAAGUGGCUGUGGCUAGACUGCA | 0.1
31 | GGCAGAGCGCAACACAGCGUGGCAAAGUGGCUGUGGCUAGACUGCU | 0.11
32 | GGCAGAGCGCAACACAGCGUGGCAAAGUGUCUGUGGCUAGACUGCC | 0.1
33 | GGCAGAGCGCAACACAGCGUGGCAAAGUGCCUGUGGCUAGACUGCC | 0.06
34 | GGCAGAGCGCAACACAGCGUGGCAAAGUGACUGUGGCUAGACUGCC | 0.09
35 | GGCAGAGCGCAUCACAGCGUGGCAAAGUGGCUGUGGCUAGACUGCC | 0.14
36 | GGCAGAGCGCACCACAGCGUGGCAAAGUGGCUGUGGCUAGACUGCC | 0.02
37 | GGCAGAGCGCAGCACAGCGUGGCAAAGUGGCUGUGGCUAGACUGCC | 0.02
38 | GGCAGAGCGCAACACAGCGUGGCAAAGUGGCUGUGACUAGACUGCC | 0.61

Row | Variant | self-cleavage
39 | GGCAGAGCGCAACACAGCGUGGCAAAGUGGCUGUGUCUAGACUGCC | 0.12
40 | GGCAGAGCGCAACACAGCGUGGCAAAGUGGCUGUGCCUAGACUGCC | 0.04
41 | GGCAGAGCGCAACACAGCGUGGCAAAGUGGCUGUGGCUAGACUGGC | 0.21
42 | GGCAGAGCGCAACACAGCGUGGCAAAGUGGCUGUGGCUAGACUGAC | 0.11
43 | GGCAGAGCGCAACACAGCGUGGCAAAGUGGCUGUGGCUAGACUGUC | 0.16
44 | GGCAGAGCGCAACACAGCGUGGCAAAGUGGCUGUUGCUAGACUGCC | 0.07
45 | GGCAGAGCGCAACACAGCGUGGCAAAGUGGCUGUAGCUAGACUGCC | 0.11
46 | GGCAGAGCGCAACACAGCGUGGCAAAGUGGCUGUCGCUAGACUGCC | 0.03
47 | GGCAGAGCGCAAUACAGCGUGGCAAAGUGGCUGUGGCUAGACUGCC | 0.11
48 | GGCAGAGCGCAAAACAGCGUGGCAAAGUGGCUGUGGCUAGACUGCC | 0.19
49 | GGCAGAGCGCAAGACAGCGUGGCAAAGUGGCUGUGGCUAGACUGCC | 0.08
50 | GGCAGAGCGCAACAAAGCGUGGCAAAGUGGCUGUGGCUAGACUGCC | 0.1
51 | GGCAGAGCGCAACAGAGCGUGGCAAAGUGGCUGUGGCUAGACUGCC | 0.43
52 | GGCAGAGCGCAACAUAGCGUGGCAAAGUGGCUGUGGCUAGACUGCC | 0.17
53 | GGCAGAGCGCAACACAGCGUGGCAAAGUGGCUGUGGCUAGGCUGCC | 0.08
54 | GGCAGAGCGCAACACAGCGUGGCAAAGUGGCUGUGGCUAGCCUGCC | 0.04
55 | GGCAGAGCGCAACACAGCGUGGCAAAGUGGCUGUGGCUAGUCUGCC | 0.14
56 | GGCAGAGCGCAACACAGCGUGGCGAAGUGGCUGUGGCUAGACUGCC | 0.14
